Changes are numbered by the printed parent chain.

Data set [1] concerns the target Escherichia coli Release Factor 1 (RF1), wild type.
Data set [2] concerns the target RF1 variant A-13 (N296K/L297R).
The target in data set [3] is T1, RF1 variant A-17 (N296K/L297R/L298K).
T1 chain: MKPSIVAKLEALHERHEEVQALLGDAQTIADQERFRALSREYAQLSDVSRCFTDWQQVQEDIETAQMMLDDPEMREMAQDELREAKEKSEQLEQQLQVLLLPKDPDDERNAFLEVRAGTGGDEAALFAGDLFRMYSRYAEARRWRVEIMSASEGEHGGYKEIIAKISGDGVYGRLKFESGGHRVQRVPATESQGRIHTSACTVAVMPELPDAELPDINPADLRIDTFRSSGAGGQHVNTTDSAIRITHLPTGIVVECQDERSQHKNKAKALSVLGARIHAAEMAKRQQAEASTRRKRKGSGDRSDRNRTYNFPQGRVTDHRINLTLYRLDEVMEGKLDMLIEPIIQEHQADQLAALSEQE

Data set [4] concerns the target T2, RF1 variant A-18 (N296K/L297R/L298R).
T2 chain: T1 chain with K298R

B1: Escherichia coli Outer Membrane Protein T1 (OmpT1) (protein)
chain: STETLSFTPDNINADISLGTLSGKTKERVYLAEEGGRKVSQLDWKFNNAAIIKGAINWDLMPQISIGAAGWTTLGSRGGNMVDQDWMDSSNPGTWTDESRHPDTQLNYANEFDLNIKGWLLNEPNYRLGLMAGYQESRYSFTARGGSYIYSSEEGFRDDIGSFPNGERAIGYKQRFKMPYIGLTGSYRYEDFELGGTFKYSGWVESSDNDEHYDPGKRITYRSKVKDQNYYSVAVNAGYYVTPNAKVYVEGAWNRVTNKKGNTSLYDHNNNTSDYSKNGAGIENYNFITTAGLKYTF
B1: the “cleavage in lysed strain SBJY001, 0, 1, 2 and 3 hours (Western blot)” value in data set [1] is given as “cleavage of unmodified, wild-type RF1 by strain SBJY001 was not detected over the same time periods”. The “cleavage in lysed recombinant strain, 0, 1, 2 and 3 hours (Western blot)” value in data set [2] is “the modified RF1 protein variants were efficiently cleaved at all time points tested by the cell-free extract, as determined by Western blot analysis (data not shown)”; in data set [3] it was “the modified RF1 protein variants were efficiently cleaved at all time points tested by the cell-free extract, as determined by Western blot analysis (data not shown)”; in data set [4] it was “the modified RF1 protein variants were efficiently cleaved at all time points tested by the cell-free extract, as determined by Western blot analysis (data not shown)”.

Source of the values: patent US20150259664.
